Substitutions are numbered along the chain they refer to. In names and notes the source's numbering stands.
B1: LIBC527814-1 (antibody, IgG1, V domains shown)
VH: QVQLQESGPGLVKPSQTLSLTCTVSGGSIRRGGDYWGWIRQHPGKGLEWIGHVYQTGSTKYNPSFKDRATISVNTYKNQFSLKLSSVTAADTAVYYCARNYDTLTGYSYYYYGMDVWGQGTTVTVSS
VL: DIQMTQSPSTLSASVGDRVTITCRASQSISNYLNWYQQKPGKAPKLLIYAASSLHSGVPSRFSGSGSGTDFTLTISSLQPEDFASYYCQQYQSYPLTFGQGTKVEIKR
B2: LIBC527997-1 (antibody, IgG1, V domains shown)
VH: B1 VH with G37A, V53I, K60N, S64R, D67G
VL: B1 VL with T10S
B3: LIBC527919-1 (antibody, IgG1, V domains shown)
VH: B1 VH with G37A, K60A, S64N, T103A, T105S
VL: B1 VL with M4L, T10S, S30I, N31S, H55R, S85T, Q92S, S93N, Q100G, K103R
B4: LIBC680800-1 (yeast-displayed Fab) (Fab, V domains shown)
VH: B1 VH with G37A, V53I, K60N, S64R, D67G
VL: DIQMTQSPSSLSASVGDRVTITCRASQSISSYLNWYQQKPGKAPKLLIYSARALSSGVPSRFSGSGSGTDFTLTISSLQPEDFATYYCQQYRKFPLTFGGGTKVEIKR
B5: LIBC680562-1 (yeast-displayed Fab) (Fab, V domains shown)
VH: B1 VH with G37A, V53I, K60N, S64R, D67G
VL: B4 VL with A53R, R92A, F94S, L96I
B6: LIBC681594-1 (yeast-displayed Fab) (Fab, V domains shown)
VH: B1 VH with G37A, V53I, K60N, S64R, D67G
VL: B4 VL with S50K, A53K, Y91F, R92G, K93S, F94M
B7: LIBC680812-1 (yeast-displayed Fab) (Fab, V domains shown)
VH: B1 VH
VL: B4 VL with A53R, K93S, F94Y, L96I
B8: LIBC680773-1 (yeast-displayed Fab) (Fab, V domains shown)
VH: B1 VH with G37A, Q55Y, K60N, S64R, L104V
VL: B4 VL with S50K, A53L, R92S, K93R, F94L
B9: LIBC681737-1 (yeast-displayed Fab) (Fab, V domains shown)
VH: B1 VH with G37A, Q55Y, K60N, S64R, L104V
VL: B4 VL with S12P, A53R, S55A, R92Y, K93H, F94P, L96I
notes: Original yeast clone without the LC P12S germline reversion; Monovalent Fab on yeast

Each binder was assayed against T1, human cannabinoid receptor type 2 (CB2) (human, UniProt P34972 1-360) (assay: fold over mock (Table 14)).
T1 construct: also called huCB2; full length hu CB2
T1 sequence (P34972 whole entry): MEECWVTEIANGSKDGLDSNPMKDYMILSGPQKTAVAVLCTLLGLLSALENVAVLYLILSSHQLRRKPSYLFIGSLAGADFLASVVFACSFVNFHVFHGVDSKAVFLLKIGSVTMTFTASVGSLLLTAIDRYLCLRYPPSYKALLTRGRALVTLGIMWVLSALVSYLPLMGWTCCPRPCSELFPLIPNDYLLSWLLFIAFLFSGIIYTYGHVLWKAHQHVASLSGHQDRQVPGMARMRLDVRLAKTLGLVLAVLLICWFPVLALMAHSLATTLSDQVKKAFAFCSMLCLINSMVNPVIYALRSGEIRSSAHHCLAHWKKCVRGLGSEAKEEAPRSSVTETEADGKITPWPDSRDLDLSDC
B1: no binding. B2: no binding. B3: no binding.

These binders were tested against T2, mouse CB1 (mouse, UniProt P47746 1-473) (assay: fold over mock (Table 14)).
T2 construct: also called muCB1; murine CB1
T2 sequence (P47746 whole entry): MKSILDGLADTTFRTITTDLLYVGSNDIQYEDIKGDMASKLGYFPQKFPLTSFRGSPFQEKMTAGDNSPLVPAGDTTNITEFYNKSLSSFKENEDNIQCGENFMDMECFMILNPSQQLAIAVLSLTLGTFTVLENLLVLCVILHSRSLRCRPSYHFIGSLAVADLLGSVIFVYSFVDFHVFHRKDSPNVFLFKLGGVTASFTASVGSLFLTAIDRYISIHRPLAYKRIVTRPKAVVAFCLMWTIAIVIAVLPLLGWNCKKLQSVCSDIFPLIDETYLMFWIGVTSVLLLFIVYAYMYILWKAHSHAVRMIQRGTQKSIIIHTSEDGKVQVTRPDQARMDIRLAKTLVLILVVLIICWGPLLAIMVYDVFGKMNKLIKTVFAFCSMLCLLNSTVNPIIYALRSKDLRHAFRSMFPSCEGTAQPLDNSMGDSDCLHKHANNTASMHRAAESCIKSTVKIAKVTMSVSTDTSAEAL
B1: no binding. B2: no binding. B3: no binding.

What follows are binders tested against T3, GFP-fused huCB1-SMALP (human CB1 in styrene maleic acid lipoparticles) (human, UniProt P21554 1-472) (assay: flow cytometry, yeast-displayed IgG, GFP MFI).
T3 construct: Prepared as in Luna V. et al. 2018; also called huCB1-GFP-SMALP; wtCB1-SMALP; not shown: GFP fusion
T3 sequence (P21554 whole entry, the tested form may be a part): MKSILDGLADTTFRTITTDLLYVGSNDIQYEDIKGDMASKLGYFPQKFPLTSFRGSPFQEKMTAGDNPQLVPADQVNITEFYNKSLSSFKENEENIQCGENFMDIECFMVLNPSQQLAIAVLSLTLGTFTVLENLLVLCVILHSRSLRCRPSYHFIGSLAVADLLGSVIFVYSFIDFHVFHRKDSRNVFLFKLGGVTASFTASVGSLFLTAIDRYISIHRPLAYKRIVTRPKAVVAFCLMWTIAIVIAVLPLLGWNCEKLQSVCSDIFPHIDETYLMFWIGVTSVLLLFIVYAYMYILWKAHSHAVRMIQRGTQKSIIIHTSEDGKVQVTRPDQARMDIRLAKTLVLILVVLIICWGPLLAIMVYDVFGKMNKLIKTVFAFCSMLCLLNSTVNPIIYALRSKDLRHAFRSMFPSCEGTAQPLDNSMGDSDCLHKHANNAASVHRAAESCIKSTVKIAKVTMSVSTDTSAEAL
For B1, the “100 nM huCB1-GFP-SMALP binding (normalized to 10D10N35Y)” value was 6.44 fold. For B2, the “100 nM huCB1-GFP-SMALP binding (normalized to 10D10N35Y)” value was 6.63 fold. In the case of B3, the “100 nM huCB1-GFP-SMALP binding (normalized to 10D10N35Y)” value is reported as 4.15 fold.

What follows are binders tested against T1, human cannabinoid receptor type 2 (CB2) (assay: binding to huCB2, fold over mock (method not described)).
Binder B1 has a Fold over mock of 0.9 fold. B2 was tested, and the Fold over mock was 0.8 fold. B3 gave a Fold over mock of 0.9 fold.

What follows are binders tested against T2, mouse CB1 (assay: binding to muCB1, fold over mock (method not described)).
In the case of B1, the Fold over mock is reported as 1.2 fold. With B2 the Fold over mock was 1 fold. For B3, the Fold over mock was 1 fold.

Each binder was assayed against T4, His-tagged huCB1-ND (human CB1 in nanodisc) (human) (assay: flow cytometry, yeast-displayed IgG, binding/display ratio).
T4 construct: CB1 construct of Cell 167(3) (2016) 750-762 expressed in Sf9 cells; POPC:MSP1D1:CB1 480:8:1; also called CB1-nanodisc; huCB1-Nanodisc; not shown: histidine purification tag
T4 sequence (P21554 99-414): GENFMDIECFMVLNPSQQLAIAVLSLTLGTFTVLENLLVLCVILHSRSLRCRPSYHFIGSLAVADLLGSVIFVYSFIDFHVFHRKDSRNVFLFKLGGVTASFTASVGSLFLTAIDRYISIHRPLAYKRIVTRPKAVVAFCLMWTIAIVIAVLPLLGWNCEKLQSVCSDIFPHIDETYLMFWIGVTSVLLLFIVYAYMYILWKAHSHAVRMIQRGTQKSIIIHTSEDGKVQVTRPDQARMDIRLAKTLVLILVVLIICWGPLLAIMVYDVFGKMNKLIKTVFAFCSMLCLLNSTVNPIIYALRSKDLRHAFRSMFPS
In the case of B1, the “0.200 nM huCB1-Nanodisc binding (relative to 10D10N35Y)” value is reported as 6.49 fold. For B2, the “0.200 nM huCB1-Nanodisc binding (relative to 10D10N35Y)” value was 6.38 fold. For B3, the “0.200 nM huCB1-Nanodisc binding (relative to 10D10N35Y)” value was 5.22 fold.

Each binder was assayed against T5, empty-ND (nanodisc without CB1) in the same assay as above.
T5 construct: its only protein is the nanodisc scaffold; also called Empty Nanodisc
B1 was tested, and the “50.0 nM Empty Nanodisc binding (relative to 10D10N35Y)” value was 0.61 fold. For B2, the “50.0 nM Empty Nanodisc binding (relative to 10D10N35Y)” value was 0.44 fold. B3 was tested, and the “50.0 nM Empty Nanodisc binding (relative to 10D10N35Y)” value was 0.64 fold.

What follows are binders tested against T6, huCB1 nanodisc (CB1-ND) (human, UniProt P21554 99-414) (assay: flow cytometry, yeast-displayed Fab, 0.2 nM CB1-ND, after background subtraction).
T6 construct: The His-tagged CB1 is embedded in a POPC lipid nanodisc with MSP1D1 scaffold protein (molar ratio 480:8:1); also called huCB1-ND; #CB1-008
T6 sequence (P21554 99-414 limits assumed): as the sequence (P21554 99-414) above
For B4, the “Relative binding fold change compared to LIBC528116 (Fab)” value (from here on “Relative binding fold change”) was 2.52 fold. For B5, the “Relative binding fold change” value was 3.34 fold. With B6 the “Relative binding fold change” value was 3.56 fold. With B7 the “Relative binding fold change” value was 2.23 fold. For B8, the “Relative binding fold change” value was 2.4 fold. For B9, the “Relative binding fold change” value was 1.89 fold.

What follows are binders tested against empty nanodisc (Empty ND) (assay: flow cytometry, yeast-displayed Fab, 50 nM Empty ND, after background subtraction).
empty nanodisc (Empty ND), sequence (P02647 79-267): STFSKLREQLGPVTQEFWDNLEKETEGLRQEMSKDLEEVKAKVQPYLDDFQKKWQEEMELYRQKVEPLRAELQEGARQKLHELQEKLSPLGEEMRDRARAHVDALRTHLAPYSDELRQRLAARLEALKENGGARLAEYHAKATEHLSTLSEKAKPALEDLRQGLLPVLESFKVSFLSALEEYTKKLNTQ
For B4, the “Relative binding fold change” value was 0.78 fold. With B5 the “Relative binding fold change” value was 0.68 fold. B6 was tested, and the “Relative binding fold change” value was 0.83 fold. B7 was tested, and the “Relative binding fold change” value was 0.74 fold. In the case of B8, the “Relative binding fold change” value is reported as 0.75 fold. With B9 the “Relative binding fold change” value was 0.73 fold.

What follows are binders tested against T7, GFP-fused huCB1 in styrene maleic acid lipoparticles (CB1-SMALP-GFP) (human, UniProt P21554 1-472) (assay: flow cytometry, yeast-displayed Fab, 2.5 nM CB1-SMALP-GFP, after background subtraction).
T7 construct: Prepared as described in Luna V. et al. 2018; also called huCB1-GFP-SMALP; GFP-tagged huCB1-SMALP; not shown: GFP fused to huCB1
T7 sequence (P21554 whole entry, the tested form may be a part): as the sequence (P21554 whole entry, the tested form may be a part) above
For B4, the “Relative binding fold change” value was 1.76 fold. B5 was tested, and the “Relative binding fold change” value was 1.94 fold. In the case of B6, the “Relative binding fold change” value is reported as 2.57 fold. B7 was tested, and the “Relative binding fold change” value was 1.71 fold. With B8 the “Relative binding fold change” value was 1.9 fold. With B9 the “Relative binding fold change” value was 1.94 fold.
